Settings: Cereibacter sphaeroides, pH 7.4, 23 °C, Urea, Fluorescence, whole UniProt chain shown

B1: Thioredoxin wild type, P08058 (protein)
chain: MSTVPVTDATFDTEVRKSDVPVVVDFWAEWCGPCRQIGPALEELSKEYAGKVKIVKVNVDENPESPAMLGVRGIPALFLFKNGQVVSNKVGAAPKAALATWIASAL
unfolding free energy (Potassium phosphate 20 mM): 8.2 kcal/mol
unfolding free energy (Potassium phosphate 20mM): 8.13 kcal/mol

Source: FireProtDB (doi:10.1002/pro.5560041207)
